B1: m42.127 Fab / Biotinylated junctional peptide Pep21 (PfCSP peptide 21) [modified: biotin (position not stated); biotin (position not stated)] [Plasmodium falciparum (clone 3D7)] (parent complex)
chain 1: QVQLVQSGAEVKKPGASVKVSCKASGYTFTSYAIHWVRQAPGQRLEWMGWIKAGNGNTRYSQKFQDRVTITRDTSASTAYMELSSLRSEDTAVYYCALLTVITPDDTFDIWGQGTMVTVSSASTKGPSVFPLAPSSKSTSGGTAALGCLVKDYFPEPVTVSWNSGALTSGVHTFPAVLQSSGLYSLSSVVTVPSSSLGTQTYICNVNHKPSNTKVDKKVEPKSCDKGLEVLFQ
chain 2: not shown
chain 3: NPDPNANPNVDPNAN

Variants of: B1
Assay: BLI; read off a plot

Variant | Kd [nM]
chain 1 T103K | ~15
chain 1 Y32K | ~18
chain 1 T103R, chain 1 P104R | ~15
chain 1 T103R, chain 1 P104Q | ~18
chain 1 T100M | ~24
chain 1 P104M | ~22
chain 1 P104Q | ~20

— publication PMC12269619 (2025)
